Starred links: 1 amine or outer side, 2 acyl side, 3 side chain; linkers in the order of their positions; H or OH if unused. Positions of bridges follow the written chain, without caps; N, C: chain ends. Groups on a side chain read outwards from the residue. No end group written: not given here. *: point of attachment. C20 diacid = O=C(O)CCCCCCCCCCCCCCCCCCC(=O)*; γGlu = O=C(O)[C@H](CCC(=O)[*:2])N[*:1]; AEEA = NCCOCCOCC(=O)O
Tests used:
[1] = target: T1, human amylin 3(a) receptor (human calcitonin receptor + RAMP-3) (human, UniProt P30988 25-474; O60896 24-148); assay: cell-based or functional assay
T1 sequence (looked up) 1: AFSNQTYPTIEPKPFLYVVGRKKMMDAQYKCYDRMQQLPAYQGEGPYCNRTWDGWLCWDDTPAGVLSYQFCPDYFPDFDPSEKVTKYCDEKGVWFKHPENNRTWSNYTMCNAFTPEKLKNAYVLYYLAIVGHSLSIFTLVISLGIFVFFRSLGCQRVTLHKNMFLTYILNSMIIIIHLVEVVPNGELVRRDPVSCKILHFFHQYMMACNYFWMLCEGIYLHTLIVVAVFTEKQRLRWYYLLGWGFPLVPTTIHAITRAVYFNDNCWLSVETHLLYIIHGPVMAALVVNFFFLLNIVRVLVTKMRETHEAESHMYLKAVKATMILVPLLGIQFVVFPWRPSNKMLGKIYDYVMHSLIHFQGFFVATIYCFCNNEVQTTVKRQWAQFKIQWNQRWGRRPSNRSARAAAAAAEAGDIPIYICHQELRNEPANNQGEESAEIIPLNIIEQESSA
T1 sequence (looked up) 2: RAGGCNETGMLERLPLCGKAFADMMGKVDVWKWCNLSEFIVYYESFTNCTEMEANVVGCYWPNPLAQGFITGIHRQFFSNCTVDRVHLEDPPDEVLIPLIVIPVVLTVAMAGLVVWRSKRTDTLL

[2] = target: T2, human calcitonin (a) receptor (human, UniProt P30988 25-474); assay: cell-based or functional assay
T2 sequence (looked up): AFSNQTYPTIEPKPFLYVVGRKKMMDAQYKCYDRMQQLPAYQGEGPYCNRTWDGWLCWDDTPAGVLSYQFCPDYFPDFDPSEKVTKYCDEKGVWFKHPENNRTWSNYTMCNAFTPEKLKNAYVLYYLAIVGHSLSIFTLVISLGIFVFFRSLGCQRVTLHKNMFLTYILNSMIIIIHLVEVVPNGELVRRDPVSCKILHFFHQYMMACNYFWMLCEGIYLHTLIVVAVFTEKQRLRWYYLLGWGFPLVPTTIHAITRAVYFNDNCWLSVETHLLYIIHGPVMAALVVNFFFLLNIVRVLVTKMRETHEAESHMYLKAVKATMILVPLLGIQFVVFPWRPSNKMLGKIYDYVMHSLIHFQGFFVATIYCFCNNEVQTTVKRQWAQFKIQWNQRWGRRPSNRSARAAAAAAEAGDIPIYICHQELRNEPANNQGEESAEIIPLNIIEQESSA

B1: N-alpha-[(S)-4-Carboxy-4-(19-carboxynonadecanoylamino)butyryl]-[Arg14,Arg17,Pro37]-pramlintide (peptide)
peptide: {C20 diacid-γGlu}-KCNTATCATQRLARFLRHSSNNFGPILPPTNVGSNTP-NH2
modifications: disulfide 2-7
SMILES: CC[C@H](C)[C@H](NC(=O)[C@@H]1CCCN1C(=O)CNC(=O)[C@H](Cc1ccccc1)NC(=O)[C@H](CC(N)=O)NC(=O)[C@H](CC(N)=O)NC(=O)[C@H](CO)NC(=O)[C@H](CO)NC(=O)[C@H](Cc1c[nH]cn1)NC(=O)[C@H](CCCNC(=N)N)NC(=O)[C@H](CC(C)C)NC(=O)[C@H](Cc1ccccc1)NC(=O)[C@H](CCCNC(=N)N)NC(=O)[C@H](C)NC(=O)[C@H](CC(C)C)NC(=O)[C@H](CCCNC(=N)N)NC(=O)[C@H](CCC(N)=O)NC(=O)[C@@H](NC(=O)[C@H](C)NC(=O)[C@@H]1CSSC[C@H](NC(=O)[C@H](CCCCN)NC(=O)CC[C@H](NC(=O)CCCCCCCCCCCCCCCCCCC(=O)O)C(=O)O)C(=O)N[C@@H](CC(N)=O)C(=O)N[C@@H]([C@@H](C)O)C(=O)N[C@@H](C)C(=O)N[C@@H]([C@@H](C)O)C(=O)N1)[C@@H](C)O)C(=O)N[C@@H](CC(C)C)C(=O)N1CCC[C@H]1C(=O)N1CCC[C@H]1C(=O)N[C@H](C(=O)N[C@@H](CC(N)=O)C(=O)N[C@H](C(=O)NCC(=O)N[C@@H](CO)C(=O)N[C@@H](CC(N)=O)C(=O)N[C@H](C(=O)N1CCC[C@H]1C(N)=O)[C@@H](C)O)C(C)C)[C@@H](C)O
B1 was tested. Which “Amylin receptor human EC50” value [1] did it give?
Its value is 0.129 nM.

And the “CTa receptor human EC50” value [2]?
Its value is 0.453 nM.

B2: N-epsilon1-[(S)-4-Carboxy-4-(19-carboxynonadecanoylamino)butyryl]-[Glu14,His17,Gln21,Ala25,Pro26,Ser28,Ser29,Pro37]-pramlintide (peptide)
peptide: K([γGlu-C20 diacid])CNTATCATQRLAEFLHHSSQNFGAPLSSTNVGSNTP-NH2
modifications: disulfide 2-7; N-terminus assumed
SMILES: CC(C)C[C@H](NC(=O)[C@H](CCCNC(=N)N)NC(=O)[C@H](CCC(N)=O)NC(=O)[C@@H](NC(=O)[C@H](C)NC(=O)[C@@H]1CSSC[C@H](NC(=O)[C@@H](N)CCCCNC(=O)CC[C@H](NC(=O)CCCCCCCCCCCCCCCCCCC(=O)O)C(=O)O)C(=O)N[C@@H](CC(N)=O)C(=O)N[C@@H]([C@@H](C)O)C(=O)N[C@@H](C)C(=O)N[C@@H]([C@@H](C)O)C(=O)N1)[C@@H](C)O)C(=O)N[C@@H](C)C(=O)N[C@@H](CCC(=O)O)C(=O)N[C@@H](Cc1ccccc1)C(=O)N[C@@H](CC(C)C)C(=O)N[C@@H](Cc1c[nH]cn1)C(=O)N[C@@H](Cc1c[nH]cn1)C(=O)N[C@@H](CO)C(=O)N[C@@H](CO)C(=O)N[C@@H](CCC(N)=O)C(=O)N[C@@H](CC(N)=O)C(=O)N[C@@H](Cc1ccccc1)C(=O)NCC(=O)N[C@@H](C)C(=O)N1CCC[C@H]1C(=O)N[C@@H](CC(C)C)C(=O)N[C@@H](CO)C(=O)N[C@@H](CO)C(=O)N[C@H](C(=O)N[C@@H](CC(N)=O)C(=O)N[C@H](C(=O)NCC(=O)N[C@@H](CO)C(=O)N[C@@H](CC(N)=O)C(=O)N[C@H](C(=O)N1CCC[C@H]1C(N)=O)[C@@H](C)O)C(C)C)[C@@H](C)O
For B2, which “Amylin receptor human EC50” value [1] is on record?
The value was 0.209 nM.

And the “CTa receptor human EC50” value [2]?
The value was 0.0675 nM.

B3: N-alpha-[(S)-4-Carboxy-4-(19-carboxynonadecanoylamino)butyryl]-[Arg17,Pro37]-pramlintide (peptide)
peptide: {C20 diacid-γGlu}-KCNTATCATQRLANFLRHSSNNFGPILPPTNVGSNTP-NH2
modifications: disulfide 2-7
SMILES: CC[C@H](C)[C@H](NC(=O)[C@@H]1CCCN1C(=O)CNC(=O)[C@H](Cc1ccccc1)NC(=O)[C@H](CC(N)=O)NC(=O)[C@H](CC(N)=O)NC(=O)[C@H](CO)NC(=O)[C@H](CO)NC(=O)[C@H](Cc1c[nH]cn1)NC(=O)[C@H](CCCNC(=N)N)NC(=O)[C@H](CC(C)C)NC(=O)[C@H](Cc1ccccc1)NC(=O)[C@H](CC(N)=O)NC(=O)[C@H](C)NC(=O)[C@H](CC(C)C)NC(=O)[C@H](CCCNC(=N)N)NC(=O)[C@H](CCC(N)=O)NC(=O)[C@@H](NC(=O)[C@H](C)NC(=O)[C@@H]1CSSC[C@H](NC(=O)[C@H](CCCCN)NC(=O)CC[C@H](NC(=O)CCCCCCCCCCCCCCCCCCC(=O)O)C(=O)O)C(=O)N[C@@H](CC(N)=O)C(=O)N[C@@H]([C@@H](C)O)C(=O)N[C@@H](C)C(=O)N[C@@H]([C@@H](C)O)C(=O)N1)[C@@H](C)O)C(=O)N[C@@H](CC(C)C)C(=O)N1CCC[C@H]1C(=O)N1CCC[C@H]1C(=O)N[C@H](C(=O)N[C@@H](CC(N)=O)C(=O)N[C@H](C(=O)NCC(=O)N[C@@H](CO)C(=O)N[C@@H](CC(N)=O)C(=O)N[C@H](C(=O)N1CCC[C@H]1C(N)=O)[C@@H](C)O)C(C)C)[C@@H](C)O
Which “Amylin receptor human EC50” value [1] does the source give for B3 here?
The value was 0.053 nM.

And the “CTa receptor human EC50” value [2]?
The value was 0.057 nM.

Which results are given for KCNTATCATQRLAEFLVHSSK([AEEA-AEEA-γGlu-19‑carboxyheptadecanoyl])NFGPILSRTNVGSHTY-NH2 (disulfide 2-7)?
Amylin receptor human EC50 [1]: 0.54 nM; CTa receptor human EC50 [2]: 0.229 nM

KCNTATCATQRLAEFLHHSSK([AEEA-AEEA-γGlu-19‑carboxyheptadecanoyl])NFGPILSSTNVGSHTY-NH2 (disulfide 2-7) was tested. Which “Amylin receptor human EC50” value [1] did it give?
The value was 1.03 nM.

And the “CTa receptor human EC50” value [2]?
Its value is 0.319 nM.

Which “Amylin receptor human EC50” value [1] does the source give for KCNTATCATQRLAEFLVRSSK([AEEA-AEEA-γGlu-19‑carboxyheptadecanoyl])NFGPILSRTNVGSRTY-NH2 (disulfide 2-7) here?
Its value is 0.344 nM.

What about the “CTa receptor human EC50” value [2] of the same binder?
The value was 0.732 nM.

B4: N-alpha-[(S)-4-Carboxy-4-(19-carboxynonadecanoylamino)butyryl]-Gly-[Arg1,Glu14,Arg17,Pro37]-pramlintide (peptide)
peptide: {C20 diacid-γGlu}-GRCNTATCATQRLAEFLRHSSNNFGPILPPTNVGSNTP-NH2
modifications: disulfide 3-8
SMILES: CC[C@H](C)[C@H](NC(=O)[C@@H]1CCCN1C(=O)CNC(=O)[C@H](Cc1ccccc1)NC(=O)[C@H](CC(N)=O)NC(=O)[C@H](CC(N)=O)NC(=O)[C@H](CO)NC(=O)[C@H](CO)NC(=O)[C@H](Cc1c[nH]cn1)NC(=O)[C@H](CCCNC(=N)N)NC(=O)[C@H](CC(C)C)NC(=O)[C@H](Cc1ccccc1)NC(=O)[C@H](CCC(=O)O)NC(=O)[C@H](C)NC(=O)[C@H](CC(C)C)NC(=O)[C@H](CCCNC(=N)N)NC(=O)[C@H](CCC(N)=O)NC(=O)[C@@H](NC(=O)[C@H](C)NC(=O)[C@@H]1CSSC[C@H](NC(=O)[C@H](CCCNC(=N)N)NC(=O)CNC(=O)CC[C@H](NC(=O)CCCCCCCCCCCCCCCCCCC(=O)O)C(=O)O)C(=O)N[C@@H](CC(N)=O)C(=O)N[C@@H]([C@@H](C)O)C(=O)N[C@@H](C)C(=O)N[C@@H]([C@@H](C)O)C(=O)N1)[C@@H](C)O)C(=O)N[C@@H](CC(C)C)C(=O)N1CCC[C@H]1C(=O)N1CCC[C@H]1C(=O)N[C@H](C(=O)N[C@@H](CC(N)=O)C(=O)N[C@H](C(=O)NCC(=O)N[C@@H](CO)C(=O)N[C@@H](CC(N)=O)C(=O)N[C@H](C(=O)N1CCC[C@H]1C(N)=O)[C@@H](C)O)C(C)C)[C@@H](C)O
Which results are given for B4?
Amylin receptor human EC50 [1]: 0.043 nM; CTa receptor human EC50 [2]: 0.041 nM

B5: N-alpha-[(S)-4-Carboxy-4-(19-carboxynonadecanoylamino)butyryl]-[Glu14,His17,Thr21,Pro37]-pramlintide (peptide)
peptide: {C20 diacid-γGlu}-KCNTATCATQRLAEFLHHSSTNFGPILPPTNVGSNTP-NH2
modifications: disulfide 2-7
SMILES: CC[C@H](C)[C@H](NC(=O)[C@@H]1CCCN1C(=O)CNC(=O)[C@H](Cc1ccccc1)NC(=O)[C@H](CC(N)=O)NC(=O)[C@@H](NC(=O)[C@H](CO)NC(=O)[C@H](CO)NC(=O)[C@H](Cc1c[nH]cn1)NC(=O)[C@H](Cc1c[nH]cn1)NC(=O)[C@H](CC(C)C)NC(=O)[C@H](Cc1ccccc1)NC(=O)[C@H](CCC(=O)O)NC(=O)[C@H](C)NC(=O)[C@H](CC(C)C)NC(=O)[C@H](CCCNC(=N)N)NC(=O)[C@H](CCC(N)=O)NC(=O)[C@@H](NC(=O)[C@H](C)NC(=O)[C@@H]1CSSC[C@H](NC(=O)[C@H](CCCCN)NC(=O)CC[C@H](NC(=O)CCCCCCCCCCCCCCCCCCC(=O)O)C(=O)O)C(=O)N[C@@H](CC(N)=O)C(=O)N[C@@H]([C@@H](C)O)C(=O)N[C@@H](C)C(=O)N[C@@H]([C@@H](C)O)C(=O)N1)[C@@H](C)O)[C@@H](C)O)C(=O)N[C@@H](CC(C)C)C(=O)N1CCC[C@H]1C(=O)N1CCC[C@H]1C(=O)N[C@H](C(=O)N[C@@H](CC(N)=O)C(=O)N[C@H](C(=O)NCC(=O)N[C@@H](CO)C(=O)N[C@@H](CC(N)=O)C(=O)N[C@H](C(=O)N1CCC[C@H]1C(N)=O)[C@@H](C)O)C(C)C)[C@@H](C)O
B5 was tested. Which “Amylin receptor human EC50” value [1] did it give?
The value was 0.091 nM.

What about the “CTa receptor human EC50” value [2] of the same binder?
The value was 0.0595 nM.
